{"source": "patent US20140050662", "system": "PSA activatable agent A10 (compound A10)", "data": [{"substance": "enzymatically active prostate specific antigen", "values": [{"measurement": "fluorescence activation (kinetic fluorescence readings, cleavage of the quenched peptide)", "result": "Test agent (compound A10-0.5 µM final concentration of agent) was activated in the presence of active PSA (0.1 µM final concentration of activated enzyme)"}]}]}
